Columns and labels:
[1] = target: T1, 2-aminoadipic semialdehyde synthase (AASS), lysine-2-oxoglutarate reductase (LOR) domain (Homo sapiens, UniProt Q9UDR5); experiment: spectrophotometric LOR enzyme assay ([…] nm, NADPH consumption); type: biochemical
T1 construct: recombinant LOR domain (amino acids 21-470)
T1 sequence (Q9UDR5 21-470): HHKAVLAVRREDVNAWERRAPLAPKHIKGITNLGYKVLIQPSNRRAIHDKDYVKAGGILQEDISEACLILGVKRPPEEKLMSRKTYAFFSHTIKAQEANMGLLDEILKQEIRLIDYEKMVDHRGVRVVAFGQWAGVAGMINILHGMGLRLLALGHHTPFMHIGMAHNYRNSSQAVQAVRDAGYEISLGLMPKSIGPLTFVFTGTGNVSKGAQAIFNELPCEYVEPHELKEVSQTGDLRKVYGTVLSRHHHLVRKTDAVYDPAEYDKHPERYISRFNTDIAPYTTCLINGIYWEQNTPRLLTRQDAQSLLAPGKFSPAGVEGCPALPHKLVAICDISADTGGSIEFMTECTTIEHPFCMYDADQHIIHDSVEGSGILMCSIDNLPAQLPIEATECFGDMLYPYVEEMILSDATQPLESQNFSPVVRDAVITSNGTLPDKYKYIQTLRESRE

[2] = target: T2, 2-aminoadipic semialdehyde synthase (AASS), lysine-2-oxoglutarate reductase (LOR) domain (Homo sapiens, UniProt Q9UDR5); experiment: X-ray crystal structure of NEM-alkylated LOR; also activation in enzyme assay and immunoblot with anti-NEM antibody; type: binding
T2 construct: LOR short construct (amino acids 21-451)
T2 sequence (Q9UDR5 21-451): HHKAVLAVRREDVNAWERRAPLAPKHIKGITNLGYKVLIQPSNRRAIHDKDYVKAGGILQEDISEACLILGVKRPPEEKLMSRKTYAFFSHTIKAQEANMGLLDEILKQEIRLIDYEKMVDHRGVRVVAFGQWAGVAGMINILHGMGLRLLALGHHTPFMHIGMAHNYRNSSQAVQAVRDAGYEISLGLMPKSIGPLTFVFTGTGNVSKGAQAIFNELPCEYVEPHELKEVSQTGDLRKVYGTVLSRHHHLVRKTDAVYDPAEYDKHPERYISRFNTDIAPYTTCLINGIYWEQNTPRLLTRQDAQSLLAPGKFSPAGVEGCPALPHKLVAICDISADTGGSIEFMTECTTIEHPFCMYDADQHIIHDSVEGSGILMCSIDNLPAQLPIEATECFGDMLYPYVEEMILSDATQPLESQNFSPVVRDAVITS

[3] = substrate: NCCCC[C@H](N)C(=O)O; experiment: steady-state kinetics, forward reaction (Km); type: biochemical, Homo sapiens; details: NADPH; pH 8.8
[4] = substrate: N[C@@H](CCCCN[C@@H](CCC(=O)O)C(=O)O)C(=O)O; experiment: steady-state kinetics, reverse reaction (Km); also inhibits the forward LOR reaction in AASS-Myc-DDK lysates; type: biochemical, Homo sapiens; details: NADP+ consistent with its ability to compete with lysine and 2-oxoglutarate; pH 8.8
purified protein [5] = substrate: NC(=O)C1=CN([C@@H]2O[C@H](COP(=O)(O)OP(=O)(O)OC[C@H]3O[C@@H](n4cnc5c(N)ncnc54)[C@H](OP(=O)(O)O)[C@@H]3O)[C@@H](O)[C@H]2O)C=CC1; experiment: purified protein; details: predicted: Ser […] and Arg […] interact with the additional phosphate of NADPH; pH 8.8; varied: cofactor
purified protein [6] = substrate: NC(=O)c1ccc[n+]([C@@H]2O[C@H](COP(=O)(O)OP(=O)(O)OC[C@H]3O[C@@H](n4cnc5c(N)ncnc54)[C@H](OP(=O)(O)O)[C@@H]3O)[C@@H](O)[C@H]2O)c1; experiment: purified protein; details: pH 8.8; varied: cofactor
purified protein [7] = substrate: O=C(O)CCC(=O)C(=O)O; experiment: purified protein; details: NADPH; pH 8.8

Molecule: NC[C@@H]1CCCN1C(=O)c1ccc2c(c1)CCC(=O)N2 [S-105]
- IC50 [1]: 142 µM

Molecule: CCN1C(=O)C=CC1=O [NEM, N-ethylmaleimide]
- X-ray crystal structure of NEM-alkylated LOR; also activation in enzyme assay an [2]: crystal structure of NEM-alkylated LOR short construct (PDB 8E8V)

B1: 2-aminoadipic semialdehyde synthase (AASS), lysine-2-oxoglutarate reductase (LOR) domain (Homo sapiens) (protein)
chain: T1 sequence (Q9UDR5 21-470)
notes: isolated LOR (amino acids 21-470)
- Km [3]: 24000 ± 2000 µM
- Vmax [3]: 28.8 µmol/min/mg
- Km [4]: 1700 ± 100 µM
- Vmax [4]: 443 µmol/min/mg
- Km (purified protein [5]): 390 ± 20 µM
- Vmax (purified protein [5]): 65.4 µmol/min/mg
- Km (purified protein [6]): 420 ± 10 µM
- Vmax (purified protein [6]): 525 µmol/min/mg
- Km (purified protein [7]): 1400 ± 100 µM
- Vmax (purified protein [7]): 57.2 µmol/min/mg

From article PMC9490328, “Characterization and structure of the human lysine-2-oxoglutarate reductase domain, a novel therapeutic target for treatment of glutaric aciduria type 1” (Open Biology, 2022)
